In IntAct's records for PubMed 18223036:

B1: Protein pleiotropic regulatory locus 1 (Arabidopsis thaliana (Mouse-ear cress)), Q42384 (parent)
chain: MPAPTTEIEPIEAQSLKKLSLKSLKRSLELFSPVHGQFPPPDPEAKQIRLSHKMKVAFGGVEPVVSQPPRQPDRINEQPGPSNALSLAAPEGSKSTQKGATESAIVVGPTLLRPILPKGLNYTGSSGKSTTIIPANVSSYQRNLSTAALMERIPSRWPRPEWHAPWKNYRVIQGHLGWVRSVAFDPSNEWFCTGSADRTIKIWDVATGVLKLTLTGHIEQVRGLAVSNRHTYMFSAGDDKQVKCWDLEQNKVIRSYHGHLSGVYCLALHPTLDVLLTGGRDSVCRVWDIRTKMQIFALSGHDNTVCSVFTRPTDPQVVTGSHDTTIKFWDLRYGKTMSTLTHHKKSVRAMTLHPKENAFASASADNTKKFSLPKGEFCHNMLSQQKTIINAMAVNEDGVMVTGGDNGSIWFWDWKSGHSFQQSETIVQPGSLESEAGIYAACYDNTGSRLVTCEADKTIKMWKEDENATPETHPINFKPPKEIRRF
partner: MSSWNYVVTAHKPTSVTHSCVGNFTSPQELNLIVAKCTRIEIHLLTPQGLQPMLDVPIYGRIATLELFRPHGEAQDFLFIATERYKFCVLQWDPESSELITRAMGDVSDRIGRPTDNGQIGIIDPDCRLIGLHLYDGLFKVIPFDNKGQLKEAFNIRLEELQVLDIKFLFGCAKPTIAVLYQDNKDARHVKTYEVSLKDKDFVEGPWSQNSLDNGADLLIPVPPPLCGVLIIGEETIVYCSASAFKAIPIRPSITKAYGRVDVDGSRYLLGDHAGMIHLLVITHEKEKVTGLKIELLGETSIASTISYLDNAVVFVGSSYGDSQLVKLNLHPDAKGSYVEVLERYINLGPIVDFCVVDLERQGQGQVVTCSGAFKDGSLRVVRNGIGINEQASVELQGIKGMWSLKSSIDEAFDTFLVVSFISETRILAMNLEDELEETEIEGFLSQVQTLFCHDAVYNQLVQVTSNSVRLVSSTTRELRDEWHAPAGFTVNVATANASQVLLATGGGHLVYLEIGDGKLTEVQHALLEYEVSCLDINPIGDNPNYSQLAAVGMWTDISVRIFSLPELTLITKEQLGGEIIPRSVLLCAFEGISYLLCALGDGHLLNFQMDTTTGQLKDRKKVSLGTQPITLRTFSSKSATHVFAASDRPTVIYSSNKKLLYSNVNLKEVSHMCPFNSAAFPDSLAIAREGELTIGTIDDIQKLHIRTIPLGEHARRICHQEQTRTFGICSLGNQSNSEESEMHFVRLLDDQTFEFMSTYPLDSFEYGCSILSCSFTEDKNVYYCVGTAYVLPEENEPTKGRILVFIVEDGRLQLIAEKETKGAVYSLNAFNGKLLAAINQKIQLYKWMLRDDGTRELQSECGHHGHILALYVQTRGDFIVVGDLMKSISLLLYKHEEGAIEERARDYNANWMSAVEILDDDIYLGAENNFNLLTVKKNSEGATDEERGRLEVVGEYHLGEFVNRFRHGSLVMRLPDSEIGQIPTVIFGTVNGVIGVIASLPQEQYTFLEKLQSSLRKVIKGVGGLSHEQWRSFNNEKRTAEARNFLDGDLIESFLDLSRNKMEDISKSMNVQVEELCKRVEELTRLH

Variants of: B1
Settings: with ddb1a_arath DDB1A

Row | Variant | effect of a mutation on the interaction
1 | R290H;R332H | decreasing interaction
